Series [1] addresses T1, Anaplastic Lymphoma kinase Artificial Substrate peptide-A (ALAStide-A).
T1 chain: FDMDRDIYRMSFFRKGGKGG

The target of the next series is T2, YFF peptide.
T2 chain: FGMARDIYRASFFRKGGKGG

Series [2] concerns the target T3, Anaplastic Lymphoma kinase Artificial Substrate peptide-B (ALAStide-B).
T3 chain: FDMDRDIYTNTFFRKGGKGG

B1: Csk (protein)
chain: MSAIQAAWPSGTECIAKYNFHGTAEQDLPFCKGDVLTIVAVTKDPNWYKAKNKVGREGIIPANYVQKREGVKAGTKLSLMPWFHGKITREQAERLLYPPETGLFLVRESTNYPGDYTLCVSCDGKVEHYRIMYHASKLSIDEEVYFENLMQLVEHYTSDADGLCTRLIKPKVMEGTVAAQDEFYRSGWALNMKELKLLQTIGKGEFGDVMLGDYRGNKVAVKCIKNDATAQAFLAEASVMTQLRHSNLVQLLGVIVEEKGGLYIVTEYMAKGSLVDYLRSRGRSVLGGDCLLKFSLDVCEAMEYLEGNNFVHRDLAARNVLVSEDNVAKVSDFGLTKEASSTQDTGKLPVKWTAPEALREKKFSTKSDVWSFGILLWEIYSFGRVPYPRIPLKDVVPRVEKGYKMDAPDGCPPAVYEVMKNCWHLDAAMRPSFLQLREQLEHIKTHELHL
On to B1, for which the “phosphorylation by kinase in vitro, ELISA” value in series [1] is “The ALK-specific biosensors are not phosphorylated by other representative cellular kinases”; with YFF peptide it was “shows the lack of affinity of these the two ALK-specific biosensors and YFF peptide by Lyn, Abl, and Csk”; in series [2] it was “The ALK-specific biosensors are not phosphorylated by other representative cellular kinases”.

B2: Lyn (protein)
chain: MGCIKSKGKDSLSDDGVDLKTQPVRNTERTIYVRDPTSNKQQRPVPESQLLPGQRFQTKDPEEQGDIVVALYPYDGIHPDDLSFKKGEKMKVLEEHGEWWKAKSLLTKKEGFIPSNYVAKLNTLETEEWFFKDITRKDAERQLLAPGNSAGAFLIRESETLKGSFSLSVRDFDPVHGDVIKHYKIRSLDNGGYYISPRITFPCISDMIKHYQKQADGLCRRLEKACISPKPQKPWDKDAWEIPRESIKLVKRLGAGQFGEVWMGYYNNSTKVAVKTLKPGTMSVQAFLEEANLMKTLQHDKLVRLYAVVTREEPIYIITEYMAKGSLLDFLKSDEGGKVLLPKLIDFSAQIAEGMAYIERKNYIHRDLRAANVLVSESLMCKIADFGLARVIEDNEYTAREGAKFPIKWTAPEAINFGCFTIKSDVWSFGILLYEIVTYGKIPYPGRTNADVMTALSQGYRMPRVENCPDELYDIMKMCWKEKAEERPTFDYLQSVLDDFYTATEGQYQQQP
On to B2, for which the “phosphorylation by kinase in vitro, ELISA” value in series [1] was “The ALK-specific biosensors are not phosphorylated by other representative cellular kinases”; with YFF peptide, “shows the lack of affinity of these the two ALK-specific biosensors and YFF peptide by Lyn, Abl, and Csk”; in series [2] it was “The ALK-specific biosensors are not phosphorylated by other representative cellular kinases”.

B3: Anaplastic lymphoma kinase (ALK) (protein)
chain: VYRRKHQELQAMQMELQSPEYKLSKLRTSTIMTDYNPNYCFAGKTSSISDLKEVPRKNITLIRGLGHGAFGEVYEGQVSGMPNDPSPLQVAVKTLPEVCSEQDELDFLMEALIISKFNHQNIVRCIGVSLQSLPRFILLELMAGGDLKSFLRETRPRPSQPSSLAMLDLLHVARDIACGCQYLEENHFIHRDIAARNCLLTCPGPGRVAKIGDFGMARDIYRASYYRKGGCAMLPVKWMPPEAFMEGIFTSKTDTWSFGVLLWEIFSLGYMPYPSKSNQEVLEFVTSGGRMDPPKNCPGPVYRIMTQCWQHQPEDRPNFAIILERIEYCTQDPDVINTALPIEYGPLVEEEEKVPVRPKDPEGVPPLLVSQQAKREEERSPAAPPPLPTTSSGKAAKKPTAAEISVRVPRGPAVEGGHVNMAFSQSNPPSELHKVHGSRNKPTSLWNPTYGSWFTEKPTKKNNPIAKKEPHDRGNLGLEGSCTVPPNVATGRLPGASLLLEPSSLTANMKEVPLFRLRHFPCGNVNYGYQQQGLPLEAATAPGAGHYEDTILKSKNSMNQPGP
Regarding B3, the “phosphorylation by ALK kinase in vitro, ELISA” value in series [1] was “ALAStide-A has higher phosphorylation activity than YFF and ALAStide-B”; in the series with YFF peptide, “YFF peptide is used as a reference to compare the phosphorylation activity of ALAStide-A and ALAStide-B”; in series [2] it was “ALAStide-B has comparable phosphorylation level with YFF peptide”.

The record behind these values is US20170183710.
